The text below walks through data of patent US12427163B2, “Anti-VTCN1 antibodies and antibody drug conjugates” (Bluefin BioMedicine, Inc., priority 2017, dated 2025).

In one assay the test system is SKBR3 cells. The assay can be described thus: Flow cytometry binding to SKBR3 cells (hybridoma screening). Also noted: species or system human. The procedure:
(§1) Supernatant from hybridoma wells, containing VTCN1 specific antibodies, were re-tested on human breast cell lines SKBR3 and ZR-75-1. 70% confluent MX-1 cells in 10 cm dish were gently washed with 1× cold PBS once, 7 ml cold flow buffer (1×PBS, 0.5% BSA, 2 mM EDTA) was then added, the cells were gently scraped in to flow buffer using rubber cell lifter, pipet up down with 10 ml transfer pipets gently to resuspend the cells. The cells were pelleted by centrifuging them for 5 minutes at 1200 rpm at room temperature. The cell pellets were resuspended in cold flow buffer, the cells were counted and the concentration was adjusted to 1×10^6 cells per 1 mL. Using a multichannel pipette, 200 μL was collected and transferred to 96-V bottom polypropylene plates and spun at 1250 rpm for 5 min at 4° C. to pellet the cells. The cell pellets were resuspended with hybridoma supernatant diluted 2-fold with cold flow buffer and incubated at 4° C. for 30 min. After incubation, cells were washed 2× with flow buffer and then labeled with anti-rat Alexa 647 secondary antibodies for 30 min at 4° C. Unbound secondary antibodies were removed by washing the cells 2× with flow buffer. Cells were then resuspended in 200 μL of flow buffer containing PI to identify dead cells and remove from analysis. […]
A general note: Flow cytometry measures light scatter and fluorescence of single cells or particles in a stream.

The next assay concerns the target T1, 293-VTCN1 (mouse) (Mus musculus, UniProt Q7TSP5).
T1 construct: expressed in transfected cells
T1 sequence (Q7TSP5 25-257): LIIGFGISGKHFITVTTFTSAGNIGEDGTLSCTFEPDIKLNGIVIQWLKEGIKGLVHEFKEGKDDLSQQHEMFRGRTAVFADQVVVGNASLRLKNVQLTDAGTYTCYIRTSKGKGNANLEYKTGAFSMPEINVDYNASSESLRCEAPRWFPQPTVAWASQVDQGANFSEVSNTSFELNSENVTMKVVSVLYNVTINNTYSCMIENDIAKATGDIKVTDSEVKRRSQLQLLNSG
Put plainly: Flow cytometry binding to 293-VTCN1 (mouse) cells. The source says:
(§2) Two constructs were made, one with an IgV domain only and one with an IgC domain only. 293 cells were transfected with VTCN1-IgV and VTCN1-IgC constructs, and stable cell lines of 293 expressing VTCN1-IgV or VTCN1-IgC domains were made. Expression constructs also made to express VTCN1 (monkey, 99% identical to human VTCN1) and VTCN1 (mouse, 88% identical to human VTCN1), stable 293-VTCN1 (monkey), and 293-VTCN1 (mouse) cell lines made by transfecting these constructs.
(§3) Flow cytometry analysis was also performed with 7C8 binding to 293-VTCN1 (monkey) and 293-VTCN1 (mouse).

The test system of the next assay is ZR-75-1 cells. The assay can be described thus: Flow cytometry binding to ZR-75-1 cells. On the set-up: species or system human. The procedure:
as §1

The test system of another assay is MX-1 cells. The assay can be described thus: Flow cytometry binding to MX-1 cells. Also noted: species or system human. Conditions: TNBC cell line. The procedure: as §1, with “buffer.” for “buffer. Cells were then resuspended in 200 μL of flow buffer containing PI to identify dead cells and remove from analysis.”
Antibody concentration was determined by OCTET™ using protein G biosensor. […] Cells were washed twice with flow buffer and analyzed using MACSQuant Analyzer 10 flow cytometer (Miltenyi Biotec, Bergisch Gladbach, Germany). […]

The next assay relates to 293-VTCN1 (monkey). The assay can be described thus: Flow cytometry binding to 293-VTCN1 (monkey) cells. On the set-up: species or system cynomolgus monkey.
From the text: as §2, §3

The target of a further assay is T2, 293-VTCN1 cells (Homo sapiens, UniProt Q7Z7D3).
T2 construct: 293-VTCN1 (full length); expressed in transfected cells; host or cells: HEK293
T2 sequence (Q7Z7D3 25-282): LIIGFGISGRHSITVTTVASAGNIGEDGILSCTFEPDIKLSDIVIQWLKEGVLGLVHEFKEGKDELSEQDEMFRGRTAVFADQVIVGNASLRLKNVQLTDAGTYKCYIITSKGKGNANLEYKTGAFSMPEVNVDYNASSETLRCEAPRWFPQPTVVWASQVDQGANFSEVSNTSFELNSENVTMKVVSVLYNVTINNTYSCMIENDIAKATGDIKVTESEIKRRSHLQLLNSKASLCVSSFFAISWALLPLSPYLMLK
Put plainly: Flow cytometry binding to 293-VTCN1 cells (full length). The procedure:
For each hybridoma, unique recombinant heavy chains were paired with unique recombinant light chains. These plasmid pairs were transfected into CHO cells in 24-well plates. Twelve days later conditioned medium from each pairing was subjected to concentration determination by OCTET™ and screened by Flow cytometric analysis for binding to 293-VTCN1 cells.
(§4) Briefly, the 7C8 antibody was incubated with 293 cells, 293-VTCN1 (full length), 293-VTCN1-IgV domain, 293-VTCN1-IgC domain cell lines for 30 min at 4° C., unbound antibody was washed away, cells were then incubated with anti-human-Alexa488 conjugate, and analyzed by flow cytometry.
Antibody concentration was determined by OCTET™ using protein G biosensor. 0.05 μg/ml, 0.1 μg/ml, 0.5 μg/ml, 1 μg/ml, 5 μg/ml, 10 μg/ml antibodies were incubated with live cells for 30 min. on ice, unbound antibodies were washed off, and a conjugated anti-mouse 2nd antibody was added to the wells for 15 min. Cells were washed twice with flow buffer and analyzed using MACSQuant Analyzer 10 flow cytometer (Miltenyi Biotec, Bergisch Gladbach, Germany). Results from flow cytometry assays indicate that mouse anti-VTCN1 antibodies are capable of binding to 293-VTCN1 cells and MX-1 cells.

The target in another assay is T3, VTCN1 IgC domain (Homo sapiens, UniProt Q7Z7D3).
T3 construct: one with an IgV domain only and one with an IgC domain only; expressed in transfected cells
T3 sequence (Q7Z7D3 153-241 limits assumed): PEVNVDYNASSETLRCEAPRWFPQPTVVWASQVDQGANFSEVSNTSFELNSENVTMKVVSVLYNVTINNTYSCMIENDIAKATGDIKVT
Put plainly: Flow cytometry binding to 293-VTCN1-IgC domain cells. Conditions: IgC domain only.
From the text: as §2, §4
(§5) It was also assessed whether these antibodies bind to IgV or IgC domain of VTCN1 protein, using 293-VTCN1-IgV domain expressing cells and 293-VTCN1-IgC domain expressing cells using FACS analysis, as in Example 3.

A further assay deals with T4, VTCN1 IgV domain (Homo sapiens, UniProt Q7Z7D3).
T4 construct: one with an IgV domain only and one with an IgC domain only; expressed in transfected cells
T4 sequence (Q7Z7D3 35-146 limits assumed): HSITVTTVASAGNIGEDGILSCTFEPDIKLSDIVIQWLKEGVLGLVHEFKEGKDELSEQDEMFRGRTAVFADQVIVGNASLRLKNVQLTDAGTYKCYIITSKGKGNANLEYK
The assay can be described thus: Flow cytometry binding to 293-VTCN1-IgV domain cells. Conditions: IgV domain only.
From the text: as §2, §4, §5

In the next assay the test system is human monocytes. The assay can be described thus: Cytokine treatment of monocytes, expression of VTCN1, PD-L1, CD80 by flow cytometry. Type of assay: cell-based. The conditions noted are these: 24, 48, or 73 hours. The procedure:
VTCN1 is expressed in monocytes and macrophages in a tumor microenviroment, the expression induced by cytokines in tumor microenviroment. VTCN1 positive macrophages inhibit T cell activation. Monocytes from healthy donors were treated with IFNγ and IL-6 to assess VTCN1 expression. Monocytes were enriched from fresh PBMC from healthy donor using a monocyte enrichment kit from Stemcell Technologies, and the purity of the obtained monocytes is greater than 95%. Monocytes were cultured in 24 well plate with different concentration of INFγ or LI-6 for 24, 48, or 73 hours, expression of VTCN1, PD-L1, and CD80 was assessed by flow cytometry. […] CD80 was expressed at low level in monocytes, and is not very responsive to cytokine treatment.

B1: 7C8: fully human VTCN1 antibody; VH SEQ ID NO: 212, VL SEQ ID NO: 216 (antibody, V domains shown)
VH: QVQLQESGPGLVKPSETLSLTCAVSGYSISSGYYWGWIRQPPGKGLEWIGSIYHSGTTYYNPSLKSRVTISVDTSKNQFSLKLNSVTAADTAVYYCATYSSGWYFYFDYWGQGTLVTVSS
VL: DIQLTQSPSFLSASVGDRVTITCRASQGISSYLAWYQQKPGKAPKLLIYVASTLQSGVPSRFSGSGSGTEFTLTISSLQPEDFATYYCQQLNSYPITFGQGTRLEIK
Regarding B1, the “binding to SKBR3 cells” value in the assay with SKBR3 cells is on record as “binds”. Moreover, the “cross reactivity with mouse VTCN1” value with 293-VTCN1 (mouse) is “cross reacts”. Moreover, the “binding to ZR-75-1 cells” value in the assay with ZR-75-1 cells is given as “binds”. Moreover, the “binding to MX-1 cells” value in the assay on MX-1 cells is listed as “binds”. Further, the “cross reactivity with monkey VTCN1” value in the assay with 293-VTCN1 (monkey) was “cross reacts”. Further, the “binding to 293-VTCN1 cells (full length VTCN1)” value with 293-VTCN1 cells was “binds to full length VTCN1”. Moreover, the “binding to IgC domain of VTCN1” value with VTCN1 IgC domain was “does not bind”. For the same molecule, the “binding to IgV domain of VTCN1” value with VTCN1 IgV domain was “does not bind”.

B2: IFNγ: cytokine added to human monocyte cultures (protein, UniProt P01579 24-161, looked up)
Interferon gamma: QDPYVKEAENLKKYFNAGHSDVADNGTLFLGILKNWKEESDRKIMQSQIVSFYFKLFKNFKDDQSIQKSVETIKEDMNVKFFNSNKKKRDDFEKLTNYSVTDLNVQRKAIHELIQVMAELSPAAKTGKRKRSQMLFRG
In the case of B2, the “VTCN1 and PD-L1 expression in monocytes” value in the assay with human monocytes is “VTCN1 and PD-L1 expression was induced”.
